In experiment [1] the target is Mouse CD40 on cells (A20 lymphoma cells, EL4-mCD40 cells, peritoneal macrophages, splenic dendritic cells) (mouse) (UniProt P27512). The experiment can be described thus: flow cytometry on A20 cells, anti-human Ck-APC (axis hCk); negative control. (In general: In flow cytometry, cells or beads pass a laser one at a time.)
The target in experiment [2] is T1, Human CD40 on cells (Raji, Daudi, IM-9) (human, UniProt P25942 21-277).
T1 construct: whole, on cells; also called cell surface CD40; hCD40
The experiment is described as follows: flow cytometry on Raji cells, 1 ug/1x10^5 cells, anti-human Ck-APC (axis hCk); negative control.

Experiment [3] deals with T2, BSA (bovine serum albumin) (bovine, UniProt P02769 25-607).
T2 construct: Control antigen in the phage ELISA
The experiment can be described thus: serial dilution ELISA on wells with blocking only (the legend calls this the binding to BSA), OD at 405 nm. Here is the method: (§1) FIGS. 20A-C The individual specific binders are screened by ELISA and 23 different scFv clones were further characterized by sequencing. FIG. 20A: Reactivity of the selected scFv clones to human CS1 was assayed by measuring absorbance at 405 nm. The individual scFv clones were reactive to human CS1-His (▪) and human CS1-Fc ( ), but not hFc ( ) or BSA (□).Binding activity determination of selected clones specific to human CS1. The three clones selected from the phage ELISA were verified in a serial dilution ELISA after expression and purification as a form of scFv-Cκ-His. The y-axis of the graphs depicts the signal for serial dilutions of the antibodies, and the x-axis depicts the antibody concentration in the wells of the dilution series. The binding to human CS1-Fc is indicated as red, while the binding to BSA is indicated as blue. […] FIG. 20B: Binding activity of anti-human CS1 cFv-Cκ-His on J558/CS1 or J558 cells measured using flow cytometry. […] Binding of scFv adapters were detected by adding APC conjugated anti-human Cκ antibodies or APC conjugated anti-His tag secondary antibodies. FIG. 20C: Binding activity of anti-human CS1 scFv-Cκ-His on MM1.s cells measured using flow cytometry. Binding of the antibodies were detected by adding either an APC conjugated anti-human Cκ antibodies, or an APC conjugated anti-His tag secondary antibodies, respectively. […]
Background: ELISA stands for enzyme-linked immunosorbent assay.

Experiment [4] deals with T3, Human CS1-Fc fusion protein (CS1 ectodomain S23~M226 with C-terminal human IgG1 Fc) (human, UniProt Q9NQ25 23-226).
T3 construct: range 23-226; Made in-house in Expi293 cells; also called recombinant CS1-Fc fusion protein; not shown: C-terminal human IgG1 Fc
T3 sequence (looked up): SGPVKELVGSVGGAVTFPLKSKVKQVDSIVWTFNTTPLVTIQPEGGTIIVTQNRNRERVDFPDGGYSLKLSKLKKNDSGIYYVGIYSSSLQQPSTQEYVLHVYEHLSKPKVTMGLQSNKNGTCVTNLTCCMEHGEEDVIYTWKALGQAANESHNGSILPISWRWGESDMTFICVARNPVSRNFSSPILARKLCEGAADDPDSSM
The experiment can be described thus: serial dilution ELISA of purified scFv-Cκ-His on coated hCS1-Fc, OD at 405 nm, detection with anti-human Cκ-HRP. The protocol: as §1

Experiment [5] concerns the target T4, Recombinant mouse CD40-Fc (1215-CD, R&D systems) (mouse, UniProt P27512 24-193, limits assumed).
T4 construct: Bought protein; also called recombinant CD40 protein
T4 sequence (looked up): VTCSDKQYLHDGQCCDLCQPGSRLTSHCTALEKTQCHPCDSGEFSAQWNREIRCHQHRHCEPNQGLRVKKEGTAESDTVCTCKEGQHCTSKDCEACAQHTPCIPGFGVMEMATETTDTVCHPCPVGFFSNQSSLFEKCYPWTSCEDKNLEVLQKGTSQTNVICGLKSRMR
The experiment is described as follows: ELISA, mouse CD40-Fc coated at 2.5 ug/ml, serial dilutions 0.0001 to 1000 nM, anti-human Ck-HRP, absorbance 450 nm. The protocol:
FIG. 8A: Recombinant mouse CD40-Fc (2.5 μg/ml) was coated in ELISA plate and the serial diluents of C1C02-Cκ or the irrelevant scFv-Cκ were loaded. The bound scFv-Cκs were detected by a secondary anti-human Cκ-HRP followed by a chromogenic reaction with TMB substrate. The absorbance was measured at 450 nm. […] FIG. 8B: A20, a CD40-expressing mouse B lymphoma cell line, was stained with C1C02-Cκ (1 μg/1×10⁵ cells) or the irrelevant scFv-Cκ and then stained with a secondary anti-human Cκ-APC. The binding intensity of the scFv-Cκs was analyzed by flow cytometry. The numbers are the mean fluorescence intensities (MFIs) of the binding.
(§2) White leghorn chickens were immunized four times with recombinant mouse CD40 (50324-M08H, Sino Biological, China) or human CD40 (10774-H08H, Sino Biological) protein. Total RNA from the bursa of Fabricius, spleen, and bone marrow was isolated using TRIzol reagent (Invitrogen, USA), and cDNA was synthesized using a SuperScript III first-strand cDNA synthesis kit with oligo (dT) primers (Invitrogen) according to the manufacturer's instructions. The scFv phage-display libraries were constructed from the cDNAs as described previously⁵¹. […] The binding of the scFv-Cκs was measured with the secondary antibody (anti-human Cκ-HRP; AP502P, Sigma-Aldrich, USA).

For experiment [6], the target named is T5, Recombinant human CD40-Fc (1493-CDB, R&D systems) (human, UniProt P25942 21-193).
T5 construct: Bought protein; also called human CD40 recombinant proteins
The experiment can be described thus: ELISA, human CD40-Fc coated at 2.5 ug/ml, serial dilutions 0.0001 to 1000 nM, anti-human Ck-HRP, absorbance 450 nm. Here is the method: FIG. 13A: Recombinant human CD40-Fc (2.5 μg/ml) was coated in ELISA plate and the serial diluents of 2B1-Ck, 2E1-Ck and irrelevant scFv antibody-Ck were loaded. The bound scFv-Cκs were detected by a secondary anti-human Cκ-HRP followed by chromogenic reaction with TMB substrate. The absorbance was measured at 450 nm. […] FIG. 13B: Raji, a CD40-expressing human B lymphoma cell line, was stained with 2B1-Ck, 2E1-Ck or the irrelevant scFv-Cκ (1 μg/1×10⁵ cells), and then stained with secondary anti-human Ck-APC. The binding intensity of the scFv-Cκs were analyzed by flow cytometry. The numbers are mean fluorescence intensities (MFIs) of the binding.
as §2

Experiment [7] has as its target T6, BSA-conjugated c-Myc peptide (also: conjugated to BSA by thiol-maleimide reaction, thiol residue not given here).
T6 construct: also called the antigen
T6 peptide: EQKLISEEDL
The experiment can be described thus: indirect ELISA after bio-panning against BSA-conjugated c-Myc peptide.

No end group written: not given here.

T2 sequence (P02769 25-607 limits assumed): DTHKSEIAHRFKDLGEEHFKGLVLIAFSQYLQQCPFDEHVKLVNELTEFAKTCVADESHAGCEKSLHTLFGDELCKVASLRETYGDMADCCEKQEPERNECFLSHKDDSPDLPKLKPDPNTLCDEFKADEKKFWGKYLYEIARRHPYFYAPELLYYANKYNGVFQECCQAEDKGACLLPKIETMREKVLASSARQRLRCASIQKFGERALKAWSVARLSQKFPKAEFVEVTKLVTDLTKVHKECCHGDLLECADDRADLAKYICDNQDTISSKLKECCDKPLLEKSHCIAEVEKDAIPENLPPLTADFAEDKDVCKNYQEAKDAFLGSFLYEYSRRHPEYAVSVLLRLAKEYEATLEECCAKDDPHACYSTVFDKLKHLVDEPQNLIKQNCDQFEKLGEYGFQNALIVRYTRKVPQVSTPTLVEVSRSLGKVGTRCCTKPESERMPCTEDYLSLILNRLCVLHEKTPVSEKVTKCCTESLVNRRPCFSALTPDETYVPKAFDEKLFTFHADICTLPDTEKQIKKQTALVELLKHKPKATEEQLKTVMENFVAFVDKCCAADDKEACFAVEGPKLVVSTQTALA
T5 sequence (P25942 21-193 limits assumed): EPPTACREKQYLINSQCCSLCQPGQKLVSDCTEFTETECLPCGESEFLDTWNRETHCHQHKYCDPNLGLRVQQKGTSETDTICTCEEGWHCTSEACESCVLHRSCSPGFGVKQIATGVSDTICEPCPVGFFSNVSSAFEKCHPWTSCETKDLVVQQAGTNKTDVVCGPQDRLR
T1 sequence (P25942 21-277): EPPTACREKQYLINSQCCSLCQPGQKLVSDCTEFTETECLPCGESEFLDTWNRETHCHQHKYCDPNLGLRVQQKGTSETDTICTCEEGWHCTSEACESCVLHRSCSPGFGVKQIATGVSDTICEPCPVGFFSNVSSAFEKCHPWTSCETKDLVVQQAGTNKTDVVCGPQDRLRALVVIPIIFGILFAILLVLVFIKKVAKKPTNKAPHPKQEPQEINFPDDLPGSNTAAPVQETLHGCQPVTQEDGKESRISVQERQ
Mouse CD40 on cells (A20 lymphoma cells, EL4-mCD40 cells, peritoneal macrophages, splenic dendritic cells) (mouse), sequence (P27512 20-289): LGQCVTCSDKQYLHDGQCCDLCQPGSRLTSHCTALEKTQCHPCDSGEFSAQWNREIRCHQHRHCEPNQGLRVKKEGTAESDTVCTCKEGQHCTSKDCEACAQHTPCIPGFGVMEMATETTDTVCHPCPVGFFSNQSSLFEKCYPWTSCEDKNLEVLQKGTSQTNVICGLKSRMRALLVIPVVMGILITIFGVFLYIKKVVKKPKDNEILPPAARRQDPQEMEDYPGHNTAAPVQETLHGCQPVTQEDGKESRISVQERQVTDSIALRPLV

Irrelevant Ab-Ck (scFv): the MFI in experiment [1] is 24.6; in experiment [2], 3.78.

B1: hCS1(#87)-Ck-His (anti-human CS1 scFv-Cκ-(G4S)2-6×His, clone #87) (scFv)
scFv: QAALTQPSSVSANPGETVKITCSGGGSYYGWYQQKSPGSAPVTVIYGNDKRPSNIPSRFSGSKSGSTATLTITGVQVEDEAVYFCGGWDSTDAGTFGAGTTLTVLGQSSRSSGGGGSSGGGGSAVTLDESGGGLQTPGGGLSLVCKASGFTFSSHGMAWVRQAPGKGLEWVAGIDDSGSSTGYGSAVKGRATISRDNGQSTVRLQLNNLRAEDTGIYYCAKAYDTGCGWAGYNVYDCSADQIDAWGHGTEVIVSSTSGQAGQRTVAAPSVFIFPPSDEQLKSGTASVVCLLNNFYPREAKVQWKVDNALQSGNSQESVTEQDSKDSTYSLSSTLTLSKADYEKHKVYACEVTHQGLSSPVTKSFNRGESGGGGSGGGGSHHHHHH
notes: also called #87 clone; His tagged CS1 adaptor
Broadly, the EC50 is the midpoint of the concentration-response curve. For the molecule B1, in experiment [3], the binding result is given as “no binding”. In experiment [4], this molecule yielded an EC50 of 2.9 nM.

B2: C1C02-Cκ (anti-mouse CD40 scFv clone C1C02 fused with human immunoglobulin kappa light chain constant region) (scFv)
scFv: QAALTQPSSVSANPGETVKITCSGGSSNYGWYQQKSPGSAPATVIYDNTNRPSDIPSRFSGALSGSTATLTITGVQVEDEAVYYCGGYDSGTYAGIFGAGTTLTVLGQSSRSSGGGGSSGGGGSAVTLDESGGGLQTPGGTLSLACKGSGFTFSSVNMQWVRQAPGKGLEWVAGISSDGSYTAYGAAVKGRATISRDNGQSTVRLQLNNLRAEDTAIYYCAKIAGGYYWDAAYSIDMWGHGTEVIVSSTSGQAGQRTVAAPSVFIFPPSDEQLKSGTASVVCLLNNFYPREAKVQWKVDNALQSGNSQESVTEQDSKDSTYSLSSTLTLSKADYEKHKVYACEVTHQGLSSPVTKSFNRGES
notes: also called C1C02 scFv; anti-mouse CD40 antibody (clone C1C02)
Take B2: the 50% effective concentration (EC50) in experiment [5] stood at 1.28 nM.

B3: hCS1(#57)-Ck-His (anti-human CS1 scFv-Cκ-(G4S)2-6×His, clone #57) (scFv)
scFv: QAALTQPSSVSANLGETVKITCSGSSGNNYGWYQQKSPGSAPVTVIYYNDNRPSDIPSRFSGSKSGSTHTLTITGVQADDEAVYFCGSGDSSSNPGIFGAGTTLTVLGQSSRSSGGGGSSGGGGSAVTLDESGGGLQTPGGALSLVCKASGFTFSSHGMAWVRQAPGKGLEWVAGIDDSGSSTGYGSAVKGRATISRDNGQSTVRLQLNNLRAEDTGIYYCAKAYDTGCGWAGYNVYDCSADQIDAWGHGTEVIVSSTSGQAGQRTVAAPSVFIFPPSDEQLKSGTASVVCLLNNFYPREAKVQWKVDNALQSGNSQESVTEQDSKDSTYSLSSTLTLSKADYEKHKVYACEVTHQGLSSPVTKSFNRGESGGGGSGGGGSHHHHHH
notes: also called #57 clone; His tagged CS1 adaptor
Consider B3, for which the binding result in experiment [3] is recorded as “no binding”. In experiment [4], this molecule had an EC50 of 9.3 nM.

B4: 2B1-Cκ (anti-human CD40 scFv clone 2B1 fused with human Cκ) (scFv)
scFv: QAALTQPSSVSANPGETVKITCSGGDSYAGSYYYGWFQQKAPGSAPVTVIYYNDKRPSDIPSRFSGSTSGSTSTLTITGVQAEDEAVYYCGSIDTSSGTGIFGAGTTLTVLGQSSRSSGGGGSSGGGGSAVTLDESGGGLQTPGGALSLVCKGSGFTFSSYQMFWVRQAPGKGLEYVAEISGSGLSTWYAPAVKGRATISRDNGQSTVRLQLNNLRAEDTGTYYCAKAAGSCGVGTCAGGIVDGIDAWGHGTEVIVSSTSGQAGQRTVAAPSVFIFPPSDEQLKSGTASVVCLLNNFYPREAKVQWKVDNALQSGNSQESVTEQDSKDSTYSLSSTLTLSKADYEKHKVYACEVTHQGLSSPVTKSFNRGES
notes: also called 2B1-Ck; free 2B1
B4: the EC50 in experiment [6] was determined as 0.365 nM.

B5: Anti-Myc scFv clone 8A9 (scFv)
scFv: QAALTQPSSVSANPGETVEITCSGGSSGYYGWHQQKSPGSAPVTVIYENTNRPSDIPSRFSGSKSGSTATLTITGVQADDEAVYFCGSYDSSSASGIFGAGTTLTVLGQSSRSSGGGGSSGGGGSAVTLDESGGGLQTPGGGLSLVCKASGFTFSSYDMAWVRQEPGKGLEYVASISRSGRYTRYGPAVKGRATISRDNGQSTVRLQLNNLRAEDTATYFCTRGGAVSIDTWGHGTEVIVSS
notes: Selected from a chicken scFv phage library by indirect ELISA
Turning to B5, the binding result in experiment [7] is recorded as “binds”.

B6: 2E1-Cκ (anti-human CD40 scFv clone 2E1 fused with human Cκ) (scFv)
scFv: QAALTQPSSVSANPGETVKITCSGSSSSYYGWYQQKAPGSAPVTLIYANDKRPSDIPSRFSGSKSGSTHTLTITGVQADDEAVYFCGSADSTDSGFGAGTTLTVLGQSSRSSGGGGSSGGGGSAVTLDESGGGLQTPGGALSLVCKASGFSFSSYSMHWVRQAPGKGLEFVAAISSDGSRYTHYGPAVKGRATISRDNGQSTVRLQLNNLRPEDTGTYYCAKTSNTWTWNTGWIDAWGHGTEVIVSSTSGQAGQRTVAAPSVFIFPPSDEQLKSGTASVVCLLNNFYPREAKVQWKVDNALQSGNSQESVTEQDSKDSTYSLSSTLTLSKADYEKHKVYACEVTHQGLSSPVTKSFNRGES
notes: also called 2E1-Ck
For B6, in experiment [6], the EC50 was found to be 1.06 nM.
